Measurements published in article PMC8519570 (2021).

Biological target: DENV2 sE WT (soluble envelope protein E of dengue virus 2, wild type) (dengue virus 2 (strain 16681))
Test: BLI

B1: EDE1 C10 quaternary epitope antibody (antibody, V domains shown)
VH: EVQLVESGAEVKKPGASVKVSCKASGYTFTSYAMHWVRQAPGQRLEWMGWINAGNGNTKYSQKFQDRVTITRDTSASTAYMELSSLRSEDTAIYYCARDKVDDYGDYWFPTLWYFDYWGQGTLVTVSS
VL: QSALTQPASVSGSPGQSITISCTGTSSDVGGFNYVSWFQQHPGKAPKLMLYDVTSRPSGVSSRFSGSKSGNTASLTISGLQAEDEADYYCSSHTSRGTWVFGGGTKLTVL
Kd: > 1000 nM
